Measured values taken from patent US20240343811A1 (SHANDONG SIMCERE BIOPHARMACUTICAL, published 2024).
Residue numbers refer to the chain shown, from its start. Where two headings read alike, the source gives them in different places. One block for each binder: values may come before it.

Columns and labels:
[1] = target: T1, cynomolgus monkey CD16, full length, on FlpinCHO cells (cynomolgus monkey, UniProt Q8SPW2 17-254); assay: FACS on FlpinCHO cells
T1 construct: also called FlpinCHO-cyno CD16; Flipin CHO-cyno CD16
Method: (§1) The required cells were scale-up cultured in a T-75 cell culture flask to the logarithmic growth phase. The medium was aspirated, and the cells were washed twice with a PBS buffer and then digested with trypsin. After the digestion was terminated, the cells were washed twice with the PBS buffer. The cells were counted, and then the cell pellet was resuspended with a [PBS+2% (w/w) BSA] blocking solution to 2×10⁶ cells/ml, and added to a 96-well FACS reaction plate at 50 μl/well. […] 50 μl/well of the antibody to be detected was added at different concentrations, and incubated on ice for 1 hour. […] The mixture was centrifuged and washed 5 times with PBS, and FACS (FACS Canto II, purchased from BD Company) was used for detection and result analysis. Data analysis was performed by software (CellQuest) to obtain the mean fluorescence intensity (MFI) of the cells. Then, software (GraphPad Prism8) was used for analysis, data fitting and EC50 value calculation.
Flipin CHO-cyno CD16 cells were subjected to FACS detection and data analysis according to the method of Example 3.1.

[2] = target: T2, human CD16a (158V), full length, on cells (human, UniProt P08637 17-254); assay: cell-based or functional assay
[3] = target: T3, human CD16b (NA1), full length, on FlpinCHO cells (human, UniProt O75015 17-200); assay: FACS on FlpinCHO cells
T3 construct: also called FlpinCHO-human CD16b (NA1)
T3 chain: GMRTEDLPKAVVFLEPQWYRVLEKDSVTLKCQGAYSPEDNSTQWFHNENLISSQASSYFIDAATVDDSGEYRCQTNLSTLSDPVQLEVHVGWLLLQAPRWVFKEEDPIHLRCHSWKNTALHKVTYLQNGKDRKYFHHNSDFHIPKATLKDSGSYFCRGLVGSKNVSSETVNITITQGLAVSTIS
Method: as §1
(§2) The binding of an antibody to be detected to FlpinCHO-human CD16b cells was detected according to the method of Example 3.1.

[4] = target: T4, human CD16b (NA2), full length, on FlpinCHO cells (human, UniProt O75015 17-200); assay: FACS on FlpinCHO cells
T4 construct: also called FlpinCHO-human CD16b (NA2)
T4 chain: T3 chain with R20S, N49S, D66N, V90I
Method: as §1, §2

[5] = target: T5, human CD16a (158F), full length, on FlpinCHO cells (human, UniProt P08637 17-254); assay: FACS on FlpinCHO cells
Method: as §1
(§3) The binding of a humanized antibody to FlpinCHO-human CD16a cells was detected according to the method of Example 3.1.

[6] = target: T2, human CD16a (158V), full length, on …; assay: FACS on FlpinCHO cells
Method: as §1, §3

Human CD16a (158F)-his = target: T6, Human CD16a (158F)-his (human); assay: SPR (Biacore), antibody captured on Protein A
T6 construct: entry holds ECD, AVI tag, linker and His tag
Method: (§4) A sample buffer and a running buffer were HBS-EP+ (10 mM HEPES, 150 mM NaCl, 3 mM EDTA and 0.05% surfactant P20) (GE Healthcare; BR-1006-69). The flow-through cell was set to 25° C. The sample block was set to 16° C. Both were pretreated with the running buffer. In each cycle, an antibody to be detected was first captured with a Protein A chip, and then a single concentration of CD16 antigen protein was injected. The binding and dissociation processes of the antibody and the antigen protein were recorded, and finally Glycine pH 1.5 (GE Healthcare; BR-1003-54) was used to complete chip regeneration. Binding was measured by injecting different concentrations of recombinant human CD16-ECD his proteins in a solution for 240 s with a flow rate of 30 μL/min, wherein a total of 5 concentrations were prepared by using 200 nM as a starting concentration (see the detailed results for the actual concentration in the test) and performing a 1:1 dilution. The dissociation phase was monitored for up to 600 s and was triggered by switching from a sample solution to a running buffer. The surface was regenerated by washing with a 10 mM glycine solution (pH 1.5) for 30 s at a flow rate of 30 μL/min. Bulk refractive index difference was corrected by subtracting the response obtained from the goat anti-human Fc surface. Blank injection was also subtracted (=double reference). For calculation of apparent KD and other kinetic parameters, Langmuir 1:1 model was used.

[7] = target: T5, human CD16a (158F), full length, on …; assay: FACS, biotinylated antibody, +10 mg/mL human immunoglobulin
Method: as §1, with “The” for “The required cells were scale-up cultured in a T-75 cell culture flask to the logarithmic growth phase. The”
(§5) An antibody to be detected was labeled in advance according to the instructions of a biotin labeling kit (EZ-Link™ NHS-PEG4 Biotinylation Kit, purchased from Thermofisher Scientific, catalog number: 21455). […] Detection was performed according to the method of Example 3.1, wherein the biotinylated antibody was detected with fluorescein APC-labeled Streptavidin (High Concentration) (purchased from Biolegend, catalog number: 405243).

[8] = target: T2, human CD16a (158V), full length, on …; assay: as above
Method: as §1, with “The” for “The required cells were scale-up cultured in a T-75 cell culture flask to the logarithmic growth phase. The”
as §5

[9] = target: T3, human CD16b (NA1), full length, on …; assay: FACS on FlpinCHO cells
Method: as §1, §2

[10] = target: T4, human CD16b (NA2), full length, on …; assay: FACS on FlpinCHO cells
Method: as §1, §2

[11] = target: T5, human CD16a (158F), full length, on …; assay: FACS, biotinylated antibody
Method: as §1, with “The” for “The required cells were scale-up cultured in a T-75 cell culture flask to the logarithmic growth phase. The”
as §5

[12] = target: T2, human CD16a (158V), full length, on …; assay: FACS, biotinylated antibody
Method: as §1, with “The” for “The required cells were scale-up cultured in a T-75 cell culture flask to the logarithmic growth phase. The”
as §5

Human CD16b (NA1)-his = target: T7, Human CD16b (NA1)-his (human); assay: SPR (Biacore), antibody captured on Protein A
T7 construct: entry holds ECD, linker, His tag and AVI tag
T7 chain: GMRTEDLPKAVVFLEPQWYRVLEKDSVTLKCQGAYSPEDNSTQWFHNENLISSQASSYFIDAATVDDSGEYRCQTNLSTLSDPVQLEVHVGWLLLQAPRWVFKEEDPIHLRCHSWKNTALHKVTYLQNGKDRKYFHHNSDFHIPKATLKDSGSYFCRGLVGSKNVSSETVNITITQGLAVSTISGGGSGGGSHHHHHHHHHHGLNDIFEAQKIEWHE
Method: as §4

Human CD16a (158V)-his = target: T8, Human CD16a (158V)-his (human); assay: SPR (Biacore), antibody captured on Protein A
T8 construct: entry holds ECD, AVI tag, linker and His tag
Method: as §4

[13] = target: T2, human CD16a (158V), full length, on …; assay: cell-based or functional assay; remark: listed apart in the source
[14] = target: T5, human CD16a (158F), full length, on …; assay: FACS on FlpinCHO cells; remark: listed apart in the source
Method: as §1

[15] = target: T2, human CD16a (158V), full length, on …; assay: FACS on FlpinCHO cells; remark: listed apart in the source
Method: as §1

[16] = target: T9, CD16 on primary human NK cells (human, UniProt P08637 17-254); assay: FACS on human NK cells
T9 construct: whole, on cells; also called resting NK cells
Method: as §1
The binding of an antibody to be detected to freshly prepared human NK cells (Milestone Biotechnologies, catalog number: PB56-N-Custom) was detected according to the method of Example 3.1.

T1 sequence (Q8SPW2 other isoform, or with tags, fused parts or gaps limits assumed): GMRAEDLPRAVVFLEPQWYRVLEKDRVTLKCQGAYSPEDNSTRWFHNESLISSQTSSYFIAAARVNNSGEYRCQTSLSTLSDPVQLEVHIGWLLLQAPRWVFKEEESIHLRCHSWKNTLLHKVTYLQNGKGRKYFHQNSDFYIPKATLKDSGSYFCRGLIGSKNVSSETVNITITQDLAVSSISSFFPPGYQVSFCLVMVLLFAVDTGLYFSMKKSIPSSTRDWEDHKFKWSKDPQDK

- EC50 [1]: 0.64 nM
- Maximum mean fluorescence intensity [1]: 18300
- EC50, activation activity for Jurkat cell [2]: 0.01 nM
- Maximum fluorescence value [2]: 162000
- EC50 [3]: 1.37 nM
- Maximum mean fluorescence intensity [3]: 47200
- Maximum mean fluorescence intensity [4]: 75400
- EC50 [5]: 0.47 nM
- Maximum mean fluorescence intensity [5]: 9410
- EC50 [6]: 0.47 nM
- Maximum mean fluorescence intensity [6]: 8090
- Kd (Human CD16a (158F)-his): 50.5 nM
- koff (Human CD16a (158F)-his): 0.0307 s⁻¹
- kon (Human CD16a (158F)-his): 607000 M⁻¹ s⁻¹
B1: VHH12-04 humanized VHH-Fc antibody (Fc fusion)
chain: EVQLVESGGGLVQPGGSLRLSCAASGITFSSYAMGWYRQAPGKQRELVAAINRFGLTNYADFVKGRFTISRDNAKNSLYLQMNSLRAEDTAVYYCNTGGVYSHPDYYTGTYWGQGTMVTVSSEPKSSDKTHTCPPCPAPEEFGGPSVFLFPPKPKDTLMISRTPEVTCVVVAVSHEDPEVKFNWYVDGVEVHNAKTKPREEQYNSTYRVVSVLTVLHQDWLNGKEYKCKVSNKALPAPIEKTISKAKGQPREPQVYTLPPSREEMTKNQVSLTCLVKGFYPSDIAVEWESNGQPENNYKTTPPVLDSDGSFFLYSKLTVDKSRWQQGNVFSCSVMHEALHNHYTQKSLSLSPGK

- EC50 [1]: 0.68 nM
- Maximum mean fluorescence intensity [1]: 18500
- EC50, activation activity for Jurkat cell [2]: 0.03 nM
- Maximum fluorescence value [2]: 153000
- EC50 [3]: 1.25 nM
- Maximum mean fluorescence intensity [3]: 45500
- Maximum mean fluorescence intensity [4]: 73200
- EC50 [5]: 0.46 nM
- Maximum mean fluorescence intensity [5]: 9180
- EC50 [6]: 0.48 nM
- Maximum mean fluorescence intensity [6]: 7950
- Kd (Human CD16a (158F)-his): 55.8 nM
- koff (Human CD16a (158F)-his): 0.032 s⁻¹
- kon (Human CD16a (158F)-his): 574000 M⁻¹ s⁻¹
B2: VHH12-07 humanized VHH-Fc antibody (Fc fusion)
chain: B1 chain with A60V, F62S, M117Q

- EC50 [7]: 1.21 nM
- Maximum mean fluorescence intensity [7]: 6850
- EC50 [8]: 1.15 nM
- Maximum mean fluorescence intensity [8]: 9000
- EC50 [9]: 0.85 nM
- Maximum mean fluorescence intensity [9]: 49700
- Maximum mean fluorescence intensity [10]: 95
- binding result [10]: no binding (tested: 100 nM)
- EC50 [11]: 0.56 nM
- Maximum mean fluorescence intensity [11]: 4940
- EC50 [12]: 0.47 nM
- Maximum mean fluorescence intensity [12]: 6400
- Kd (Human CD16a (158F)-his): 108 nM
- koff (Human CD16a (158F)-his): 0.00831 s⁻¹
- kon (Human CD16a (158F)-his): 76600 M⁻¹ s⁻¹
- Kd (Human CD16b (NA1)-his): 95.7 nM
- koff (Human CD16b (NA1)-his): 0.0485 s⁻¹
- kon (Human CD16b (NA1)-his): 507000 M⁻¹ s⁻¹
- Kd (Human CD16a (158V)-his): 27 nM
- koff (Human CD16a (158V)-his): 0.00373 s⁻¹
- kon (Human CD16a (158V)-his): 138000 M⁻¹ s⁻¹
- EC50, activation activity for Jurkat cell [13]: 0.09 nM
- Maximum fluorescence value [13]: 178000
- EC50 [14]: 0.91 nM
- Maximum mean fluorescence intensity [14]: 4010
- EC50 [15]: 0.47 nM
- Maximum mean fluorescence intensity [15]: 5000
B3: VHH01 VHH-Fc antibody (Fc fusion)
chain: QVQLVESGGGLVQAGGSLRLSCVASRSTLTTYAVRWYRQAPGKQREWVAFISVDGNTNYPDSVKGRFIVSRDNAKNTVYLQMNSLKPEDTADYICRAGGQYWGQGTQVTVSSEPKSSDKTHTCPPCPAPEFEGGPSVFLFPPKPKDTLMISRTPEVTCVVVAVSHEDPEVKFNWYVDGVEVHNAKTKPREEQYNSTYRVVSVLTVLHQDWLNGKEYKCKVSNKALPAPIEKTISKAKGQPREPQVYTLPPSREEMTKNQVSLTCLVKGFYPSDIAVEWESNGQPENNYKTTPPVLDSDGSFFLYSKLTVDKSRWQQGNVFSCSVMHEALHNHYTQKSLSLSPGK

- EC50 [7]: 1.51 nM
- Maximum mean fluorescence intensity [7]: 7580
- EC50 [8]: 1.51 nM
- Maximum mean fluorescence intensity [8]: 10400
- EC50 [16]: 0.74 nM
- Maximum mean fluorescence intensity [16]: 2430
- EC50 [9]: 1.33 nM
- Maximum mean fluorescence intensity [9]: 41400
- Maximum mean fluorescence intensity [10]: 351
- binding result [10]: no binding (tested: 100 nM)
- EC50 [11]: 0.32 nM
- Maximum mean fluorescence intensity [11]: 6160
- EC50 [12]: 0.65 nM
- Maximum mean fluorescence intensity [12]: 9200
- Kd (Human CD16a (158F)-his): 23.4 nM
- koff (Human CD16a (158F)-his): 0.00128 s⁻¹
- kon (Human CD16a (158F)-his): 54700 M⁻¹ s⁻¹
- Kd (Human CD16b (NA1)-his): 21.6 nM
- koff (Human CD16b (NA1)-his): 0.00265 s⁻¹
- kon (Human CD16b (NA1)-his): 122000 M⁻¹ s⁻¹
- Kd (Human CD16a (158V)-his): 8.93 nM
- koff (Human CD16a (158V)-his): 0.000738 s⁻¹
- kon (Human CD16a (158V)-his): 82600 M⁻¹ s⁻¹
- EC50, activation activity for Jurkat cell [13]: 0.03 nM
- Maximum fluorescence value [13]: 161000
- EC50 [14]: 0.66 nM
- Maximum mean fluorescence intensity [14]: 7240
- EC50 [15]: 0.68 nM
- Maximum mean fluorescence intensity [15]: 7660
B4: VHH04 VHH-Fc antibody (Fc fusion)
chain: B3 chain with A24G, R26S, S84N
